Test results as given in article PMC5673899, “Structural basis for receptor recognition of pollen tube attraction peptides” (Nature Communications, 2017).
Entries after “also recorded” stand apart in the source; their conditions may differ.

Columns and labels:
AtPRK6^LRR = assay: ITC, AtLURE1.2 titrated into AtPRK6^LRR; parameters: species or system Arabidopsis thaliana; conditions: MicroCalorimeter ITC200, 25 °C, 200 mM HEPES pH 7.0, 100 mM NaCl, ~0.9 mM AtLURE1.2 into 0.08 mM AtPRK6^LRR, 20 × 2 μl at 2.5-min intervals, insect cell proteins, read-out: dissociation constant / binding affinity
Description: (§1) The genes of AtPRK3 ^LRR (residues 1–241), AtPRK4 ^LRR (residues 1–277), AtPRK5 ^LRR (residues 1–279), AtPRK6 ^LRR (residues 1–262), MIK1 ^LRR (residues 1–633), MIK2 ^LRR (residues 1–707) were amplified from Arabidopsis cDNA library by PCR and cloned into pFastBac-1 vector with a C-terminal 6 × His-tag. Their identities were confirmed by sequencing. The mature form of AtLURE1.1 (residues 20–94), AtLURE1.2 (residues 20–90), AtLURE1.3 (residues 21–91), and AtLURE1.4 (residues 20–90) were cloned into pFastBac-1 vector, with a modified N-terminal hemolin signal peptide and 6 × His-SUMO tag. Point mutation constructs were generated by QuickChange Site-Directed Mutagenesis Kit (Strategene). All the proteins were expressed using the Bac-to-Bac baculovirus expression system (Invitrogen) in High Five cells at 22 °C. One liter of High Five cells (2.0 × 10^6 cells mL^−1) cultured in the medium from Expression Systems was infected with 25 ml recombinant baculovirus and the media was collected after 72 h of infection. Secreted LRR proteins were purified using Ni-NTA (Novagen) and size-exclusion chromatography (Hiload 200, GE Healthcare) in buffer containing 10 mM Bis-Tris pH 6.0 and 100 mM NaCl. The His-SUMO tag of the AtLURE proteins was removed by Prescission Protease at 4 °C overnight in buffer containing 25 mM Tris pH 8.0 and 150 mM NaCl. […]

AtPRK3^LRR = assay: ITC, AtLURE1.2 titrated into AtPRK3^LRR; format: binding, Arabidopsis; conditions: 25 °C, 200 mM HEPES pH 7.0, 100 mM NaCl, ~0.9 mM AtLURE1.2 into 0.08 mM AtPRK3^LRR
Description: as §1

MIK2^LRR = assay: ITC, AtLURE1.2 titrated into MIK2^LRR; format: binding, Arabidopsis; conditions: 25 °C, 200 mM HEPES pH 7.0, 100 mM NaCl, as for MIK1LRR (0.5 mM AtLURE1.2 into 0.05 mM)
Description: as §1, with “NaCl.” for “NaCl. The His-SUMO tag of the AtLURE proteins was removed by Prescission Protease at 4 °C overnight in buffer containing 25 mM Tris pH 8.0 and 150 mM NaCl.”
Supplementary Figure 6: Binding affinity between MIK1LRR, MIK2LRR and AtLURE1.2 was not detected in ITC assay. […]

[1] = test system: AtPRK3^LRR and AtPRK6^LRR; assay: Gel filtration assay, AtPRK3^LRR-AtPRK6^LRR interaction in the presence of AtLURE1.2; format: binding, Arabidopsis
Description: The AtPRK6^LRR and AtLURE1.2 proteins purified as described above were subjected to gel filtration (Hiload 200, GE Healthcare) in buffer containing 10 mM Bis-Tris pH 6.0 and 100 mM NaCl. A mixture of the purified AtPRK6^LRR and AtLURE1.2 proteins with a molar ratio of about 1:3 were incubated in 4 °C for 30 min before gel filtration analysis. Samples from relevant fractions were applied to SDS-PAGE and visualized by Coomassie blue staining. Similar procedures were used to verify the interaction of AtLURE1.2 with the other LRR proteins. […]
the presence or absence of AtLURE1.2 in vitro. […]
assay. Left panel: gel-filtration profile of the AtPRK3LRR and AtPRK6LRR proteins.
A280 (mAU), […] at 280 nm. Right panel: Coomassie blue staining of the peak fractions shown on the top following SDS–PAGE. M, molecular weight ladder (kDa). Numbers on top of SDS-PAGE indicate elution […]
AtLURE1.2 under gel filtration assay. The assays were performed as described in […]
(1 picture or pasted object on this page, not shown here)

PRK6 N239A = assay: In vitro pull-down with AtPRK6^LRR mutant N239A; format: binding, Arabidopsis thaliana
Description: as §1, with “NaCl.” for “NaCl. The His-SUMO tag of the AtLURE proteins was removed by Prescission Protease at 4 °C overnight in buffer containing 25 mM Tris pH 8.0 and 150 mM NaCl.”
(§2) The purified His-tagged ectodomains of AtPRK proteins and MIK1, 2 were used to pull-down the AtLURE1.2 peptide. […] All the eluted samples were analyzed by SDS-PAGE and visualized by Coomassie blue staining. […]

[2] = test system: AtPRK6^LRR with mutations of other AtLURE1.2-interacting residues; assay: In vitro pull-down with other AtPRK6^LRR mutants; format: binding, Arabidopsis thaliana; conditions: mutations of other AtLURE1.2-interacting residues of AtPRK6^LRR
Description: as §1, with “NaCl.” for “NaCl. The His-SUMO tag of the AtLURE proteins was removed by Prescission Protease at 4 °C overnight in buffer containing 25 mM Tris pH 8.0 and 150 mM NaCl.”
as §2

B1: AtLURE1.2: mature form of AtLURE1.2 (residues 20–90), defensin-like cysteine-rich peptide expressed in insect cells (protein)
chain: TLINGSSDEERTYSFSPTTSPFDPRSLNQELKIGRIGYCFDCARACMRRGKYIRTCSFERKLCRCSISDIK
modifications: left off: His6, N-terminal, cleaved | SUMO, N-terminal, cleaved
notes: mature form of AtLURE1.2 (residues 20–90), defensin-like cysteine-rich peptide expressed in insect cells
Kd (AtPRK6^LRR): ~3000 nM | binding in ITC (AtPRK3^LRR): none of the purified AtPRK3^LRR, MIK1^LRR or MIK2^LRR proteins showed detectable interaction | binding in ITC (MIK2^LRR): not detected; also recorded: no obvious heat was produced; also recorded: none of the purified AtPRK3^LRR, MIK1^LRR or MIK2^LRR proteins showed detectable interaction | AtPRK3^LRR-AtPRK6^LRR complex formation in the presence of AtLURE1.2 [1]: do not form a complex; also recorded: failed to detect AtPRK6^LRR−AtPRK3^LRR interaction | AtLURE1.2 binding activity of receptor mutant (PRK6 N239A): still retained the AtLURE1.2 binding activity | interaction in pull-down assay [2]: much less striking effects
